This is an account of results in paper PMC11236199.

In assay [1] the target is civet SARS CoV 007/2004 spike protein ectodomain (civet SARS CoV 007/2004 | bacteriophage T4). Put plainly: cryo-EM structure.
Assay [2] addresses civet SARS CoV SZ3/2003 spike protein ectodomain (civet SARS CoV SZ3/2003 | bacteriophage T4). The experiment in a line: cryo-EM structure.

With “civet SARS CoV 007/2004 spike protein ectodomain (domain or fragment)”, the stoichiometry N (commonly a count of units in the complex or per binding partner) in assay [1] is 3.
As to “civet SARS CoV SZ3/2003 spike protein ectodomain (domain or fragment)”, in assay [2], the stoichiometry N came out at 3.
